Consider 19 sequences from the DeepSol protein solubility set.

This data set in a line: soluble on expression in E. coli; label from the status in PepcDB or PDB records.
With “MGGSHHHHHHGMASALRGLEEPGPRPTATPCGCVKPALETGNLLTEPVGYLESCFSAKNGTPRQPSICSYSRACLRIRKRIFNNPEHSLMGLEQFSHVWILFVFHKNGHLSCKAKVQPPRLNGAKTGVFSTRSPHRPNAIGLTLAKLEKVEGGAIYLSGIDMIHGTPVLDIKPYIAEYDSPQNVMEPLADFNLQNNQHTPNTVSQSDSKTDSCDQRQLSGCDEPQPHHSTKRKPKCPEDRTSEENYLTHSDTARIQQAFPMHREIAVDFGLESRRDQSSSVAEEQIGPYCPEKSFSEKGTDKKLERVEGAAVLQGSRAETQPMAPHCPAGRADGAPRSVVPAWVTEAPVATLEVRFTPHAEMDLGQLSSQDVGQASFKYFQSAEEAKRAIEAVLSADPRSVYRRKLCQDRLFYFTVDIAHVTCWFGDGFAEVLRIKPASEPVHMTGPVGSLVSLGS”, the “soluble on expression in E. coli” value is “not soluble”.

For the sequence “MGSDKIHHHHHHMNMKYQHIIEVDKELCIGCGLCKNDCPVNNIIIENKKSVIKKQDCLMCGHCAAICPTKAITLTGFDEPPIELTNKPKLDSDELLMAIKSRRSIRKFKDKEVSSEIIKQIIEAGRYTPSAKNSQDVSYIVLDNKKSIYENEAVKFFRKIKPIANIAIKYSKEVEIDDNFFFKHAPIAIMIITKDKISGSLAASNMALMAESYGLGVLFSGYFSDVANNSPKLKKLLGLKRSNHVLTTLVIGYPDVKYRRTAQKEVATVRYL”, the “soluble on expression in E. coli” value was “not soluble”.

Turning to “MGSDKIHHHHHHMCMDRAICGNFYYGGKFDYLEVIVSDGKIAGIKKDAGNVPKTNYDGAILPAATDIHVHFRTPGETEKEDFGSGSLSAIYGGTTYVMDMPNNRFPITDYNAFGDKLGSIDSTSFADFSLYSMETGKNAMLLDRRSIGLKVYLGGSTNSTGTEVIEEGDIRKINEMNYPVVFHGESERCLKTHQMEEKNLRDHNLARPIDCEIEAAKYVSGLDIKTKIMAHVSSPDVTGNFLREVTPHHLLLNDEMPLGSFGKVNPPLRDSRTQKRLLDDYISGKFDILSSDHAPHTEDDKREFEFAKSGIIGVETRVPLFLALAQKKIVPLDVLYRTAIENPPSIFGIKKGKIEIGYDADFMVIDFTSMKRINDNRLHSKFPVSPFNGMDAIFPSHVIMRGNVVIDRYEDISDPMGVFIPKPQKE”, the “soluble on expression in E. coli” value is listed as “not soluble”.

In the case of “VGKVFVDAIVKFTKEGDKIPLEIVWDDGRRFEVDRVLDVTKAASLKAGGRGTRYKCRIRGKEIYLFFDDEKWFVETGNK”, the “soluble on expression in E. coli” value was “not soluble”.

In the case of “RGRLRIFFGFAAGVGKTYGMLTEAHELLMMGKHVVVGYIEPHDRPDTNRLLEGLPQIPPKNIFYKQMVLTEPDIDQIIQQKPEIVLIDELAHSNAEGSRNRKRYQDIDELLNAGIDVFTTVNVQHIESLNDIVEEVTGIEVKETVPDTFLRQATIRVIDVEPDELIERLEQGKIYANENAKRALKNFFIPQKLDQLRGLAIQRASDHINRISGKTIG”, the “soluble on expression in E. coli” value is recorded as “not soluble”.

“MRKGNTDLLLFFNGWGMDRRVADWLVSAWPDSAGRDIAVLYDYRNLSIPAWLGEVMAEARAVDLVAWSLGVWAAVNSELEKIDRAVAINGTATPLDAERGIPPEIFAGTLKSWNDANRKRFERRMTGGVPPKIVDATRSDRTSADQQAELLSLGEAVARFPAESTASWKFSKALIGGRDLIFSAENQRRAWSEAGVRVAEIAAMPHFPFTHIAGWGELFT”: the “soluble on expression in E. coli” value is given as “not soluble”.

Take “KMFSYEGQVIIVTGDEKSTEFCNTATANYDSFRAGPVFDGTGLNPFCFVAHDFTADYLPNGQAKMFSSNVSYAQGDRIFDDVSTWDDYSLRVNHPLRIAGDRVYLQGHGYAPTFSIQWPNGEKRTQTVQWQPTDPTFFLSDGVVRFDPPAGMNDSVYDRRQHQLAIQGLFAPTASWEGENHELLTSRFPAMTDPAVAIDVYRGDNGLDSGKGQNLFKLDTSLVHSGQLQRLERVNLTKGESVTLDDGTVVTFEGAEEFANYQISHDPTQ”: the “soluble on expression in E. coli” value is recorded as “not soluble”.

In the case of “MGSDKIHHHHHHMNYTKMRGVEEKLVESIVRRTIDTAEARLRKYVFTPTGEKRPERKPLAKLKEEIESFLRTRENKLLVLYGLRGVGKTTMLAQIYFKLLPQIPRERLVYVSLDKLRPLGISLNYFVQAYERLLGERIEEFSQPTFLFIDEAHYDENFGITVKDLYDSASNLMIVVTGSSSLPLKLDPDLMRRAKKLRVPPLTFTEYLLLKRGLQIPEELSAALKHAFLNCDFSGVEEKLDGVLLKFTEKDVEDYLIQGSLPIYLTSKNPLEDAYEILRKIVEVDLVLEGLSETTREKALGLLLLLASGESLAYDELSSTLGLAKGTVEKLIEKLEDLEVIFPVRAYGSLGKVARKTPKYKFLAPMLRSAVLYEFGLFERDSKTLGMLLEDAVALYLHLLAKEKKLGLHYDAQKGGADFILKGQSRGIVIEVGWGKKGLRQVIKTMKKTGLNCGVVIYNGPLKKKGEVWFVPRELFLLML”, the “soluble on expression in E. coli” value is given as “not soluble”.

For “MAGDPMSESLAQYQEDLRRFSDELIRIQTPIKILDAIKWPREMEERFLSSKGTVLPAIKQDFYQNIALPFDPAKTQAELLSLKNDIHRRLGKKDKLGKLLVANVDQYRLVVDMLGHRGTPTFGKLSQELYGSASHRLHGDRHTLRQLGDRLSYIFSLPAARHMNKHHPKIISAPEAVNVLSQRLEKYFHSDDMRVRLSDGIVSDAAVGGDTVKLNSKAMFSESDLNVYEVHEGWVHVGTTLNGRAQPHATWLSVGSPRVAATQEGLAVLLEMLTLSSNPGRARRISDRVAAVDMAENGADFIEVFNYFRELNLSAKDSYRVTQRVFRGGMVEGGSFFTKDISYVRGYVENINFIRSAITSGLPELIPMLFLGKLAIEDIPVLYQACQEGILTPPKYLPPMFDNFSGLYAWFGFASGLAGIDLKGVQRHFTRLFKDVPSIDPSLELLDDTEFDNNSDAAALEHHHHHH”, the “soluble on expression in E. coli” value is “soluble”.

Take “MTFYDHLHASPYTWERVGNLLADATAADVERSLAYRRRTIQDFITLISPAAIPYLEQMARQAHALTVERFGHTMQLYIPLYLSNICSNACVYCGFSRSNKIHRRRLTAEEVDREAEAILRLGYKHLLLVSGESEKATPASYYEKMTRRLRPLFSQLSLEVQPLTTEEYARLHEAGIGAVYVYQETYNEQAYPTYHPAGRKADYRYRLETPDRIGRANMQKIGIGALLGLENWRVDSVFTALHLRYLEQTYWKSKFSISLPRLRPATGGWEPKDPIDDVGMVQLITAFRLLDKDVEISLSTRESREFRDHVMPLGITSVSAGSKTEPGGYAEENADLEQFAINDARSPAEMAADLRRLGYEPVWKDWDAFM”: the “soluble on expression in E. coli” value was “not soluble”.

With “SFHGIPASGVMGGAPANKPELYEEVKLYKNAREREKYDNMAELFAVVKTLQALEKAYIKDCVTPNEYTGACSRLLVQYKAAFKQVQGSDVGSIDDFCRKYRLDCPLAMERIKEDRPITIKDDKGNLNRCIADIVSLFITVMDKLRLEIRAMDEIQPDLRELMETMNRMSNMPPDSEAKDKVSLWLTTLSSMSASDELDDSQVRQMLFDLESAYNAFNRFLHSS”, the “soluble on expression in E. coli” value is listed as “soluble”.

On to “LGIDLLSYYIEAGSCMIYYNEKPYIDEFQQYVSDNDISTTDVEQYDEWMSEHDVAFYSVQEMGKVIYNKSNVDKLISPAKNMYDYRFTGSYELPVQFSDIEAEVFIYTGFTEKYY”, for which the “soluble on expression in E. coli” value is “not soluble”.

As to “MAKTTGILDKSLSRGKTEINLSTFAVLFSEMVLYAQNRSETVTDIHDKIASYGKQVGLRMFDIITLREKGYKRETKLLGMLMFIKSTVWKNLFGKEADKLERSNDDHCTYLLIEKDPMVNTYISVPRDKGVLNCAAFAAGIVEAILESASFKCKVTAHWHNGTAYVIQFDESVIARENSLLDSNR”, the “soluble on expression in E. coli” value was “not soluble”.

For the sequence “ISRLLKNNLMDDVFNTENESFAQETRLIENEYSINLPTRFYYKKKWNDGWINVVNPFRASMVLGTPGSGKSYAIVNNYIKQQIEKGFAVYIYDYKFPDLSEIAYNHLISYLDGYKVKPKFYMINFDDPRKSHRCNPINPAFMTDISDAYEASYTIMLNLNRSWITKQGDFFVESPIILLASIIWFLKIYQGGKYCTFPHAIEFLNKKYADTFTILTSYPELENYLSPFMDAWESNAQDQLQGQLASAKIPLSRMISPALYWVMTGDDFSLDINNPEEPKILVVGNNPDRQNIYSCALGLYNSRIVKLINKKHQLKSSVIIDELPTIYFRGLDNLIATARSNKVAVCLGFQDFSQLRRDYGDKESKVIENTVGNIFSGQVVSETAKTLSDRFGKVLQKRQSMTINRNDKSTSISTQMDSLIPPSKISNLTQGMFVGAVSDNFDERIEQKIFHAEIMVDNEKVKRETASYKKLPQIIDFRDEDGNDRMQEEIQANYNRVKQEVQQIITDEIERIKNDPNLQNLLKHE”, the “soluble on expression in E. coli” value is recorded as “not soluble”.

As to “MTEDQVEILEYNFNKVNKHPDPTTLCLIAAEAGLTEEQTQKWFKQRLAEWRRSEGLPSECRSVTD”, the “soluble on expression in E. coli” value is on record as “soluble”.

On to “MGSDKIHHHHHHMSVRQPLPERLRPTVLEGFVGQTHLTQRIEALLRANRLPSLLLFGPPGCGKSTLALLLAKARSANVLRLSAPEAGLQHLRKQLHGVDILVLDELHRFSKAQQDFFLPLLESGDITMLATTTENPSFSVTRQLLSRLHVLRLRPLGRAELLELGRRGAVAQEVQIEDDVLDLLASMSHGDARTMLNLLEYVAALPEDKRDIEGVRSAMPEIVSRHDKDGDNHYELASALIKSIRGSDPDAALYYLACLLEGGEDPRFVCRRLILSASEDVGLADPQALPLAVACMQAVEYVGMPEGFIPMAQTTVHLALARKSNSTYAAYINAARELKTQGRKGVPLHLRNPSTRLQKEWGYGKGYRYPHSYPEGWIEQEYLPEGLEDRRFYAPRENGEEPRLSAWWRKLQRQRPPRRGSGE”, for which the “soluble on expression in E. coli” value is “not soluble”.

For “MKTEHKQVVVVGAGPSGSTVSALLKSRGIDVVVIEKATFPRFSIGESLLPACMEVVELAGMTEAVKQHGFQFKDGAAFRRNGVYTHFDFTDKFTAGPGTTFQVQRASFDKVLADSAAEQGVDIRYQHELVSLAFEGKKSRLEVVGPDKQAYQIEADFVLDASGFGRVLPRLLDLEEPSCLPPRKAIFTHIEDHISPQEPEYDRNKILISVHPENHDVWYWLIPFSNGTCSFGVVGEPEFFEQYPEDKLAALQQLANEEPGLASLLRNAKYPNPVGELGGYSANVKRLATEHYALLGNAGEFLDPVFSSGVTIAMKSAQFAADCVVRQLNGEVVDWQEEYSERLMVGVNTFRTYVEGWYNGTLQDVIFYQAPNPRIKQMISAILAGYAWDTENPYVKQSEQRLSTLAELVRGEGFLEHHHHHH”, the “soluble on expression in E. coli” value is reported as “soluble”.

Consider “QYQDYASFFRNNKSVTHLIVPSNFIGAGVSKYKDWKRSNIPYTQLDMAVVQNRPAGSLRRFVVLVVGETTRAANWGLNGYSRQTTPLLAARGDEIVNFPQVRSCGTSTAHSLPCMFSTFDRTDYDEIKAEHQDNLLDIVQRAGVEVTWLENDSGCKGVCGKVPNTDVTSLNLPEYCRNGECLDNILLTKFDEVLNKNDKDAVLILHTIGSHGPTYYERYTEAERKFTPTCDTNEINKCTRATLVNTYDNTVLYVDQFIDKVIRKLENRDDLESVVHYVSDHGESLGENG”, for which the “soluble on expression in E. coli” value is listed as “not soluble”.

As to “PYAKGNFKAYEQELIGRFKHGESIHSDSIRFPDSLRYKTLVTGRTVYGGGGIMPDLFIPTDTALFNKLHRELLNKGIFNRAVLKYVDAHRQKLRQRFPDRQSYATFSIPEELTESLKAFAEAEKITWSTELFAQAEELIKCQLHAYIARDILGENDFFYFFNRMDKEYIKALDLLNDPDEYKRLLGK”, the “soluble on expression in E. coli” value was “not soluble”.
